Here are results for three compounds from publication PMC7814183, “Supramolecular polymerization of sulfated dendritic peptide amphiphiles into multivalent L-selectin binders” (Beilstein Journal of Organic Chemistry, 2021).

Data set [1] in a line: TEM of negatively stained solutions (self-assembly morphology). Type of data set: physicochemical. To be noted: TEM (25 µM, TRIS 20 mM pH 7.4, 100 mM NaCl) and cryo-TEM (50 µM, PBS (-/-) pH 7.4, 100 mM NaCl). As to the method:
The application of transmission electron microscopy (TEM) gave further insight into the morphology of the assemblies induced by the secondary structure formation (Figure 1). All samples for convential TEM imaging were prepared by placing 5 μL of the aqueous solution on a sample grid for 1 min, followed by the removal of the excess liquid using a filter paper and subsequent negative staining using a 2% uranyl acetate solution. By analyzing a 25 μM aqueous solution of I, long rigid anisotopic rod-like structures with lengths of 200–400 nm could be visualized (Figure 1B and 1C), in agreement with our previously reported findings. […] The copresence of shorter, more flexible structures could be seen as well. […] Since the morphology of the aqueous supramolecular polymers observed in dry TEM can be influenced by the sample preparation, cryo-TEM experiments were furthermore performed in order to visualize the assemblies in a native state (Figure 1D and Figure S1 in Supporting Information File 1). The presence of straight nanorods of over 200 nm in length with a high degree of lateral order could be observed, thus corroborating the interpretations from dry TEM experiments.
In order to compare the morphology of the self-assembled sulfated compound II with the TEG-decorated compound I, TEM and cryo-TEM experiments were performed (Figure 2B and 2C). […]

Data set [2] is described as follows: CD spectroscopy, ionic strength-dependent titration of self-assembly. To be noted: 25 µM solution in 20 mM TRIS, pH 7.4; CD band around 218 nm. Type of data set: physicochemical. An excerpt:
The self-assembly behavior of the peptide-based materials can be readily investigated using CD spectroscopy. The supramolecular polymerization strongly relies on the formation of secondary structure elements, leading to ordered domains that lead to characteristic CD band spectra. By probing aqueous solutions of I at different concentrations in H2O, a strongly negative CD band at around λ ≈ 220 nm became apparent (Figure 1A). In the past we have assigned this characteristic CD band to a β-sheet-dominated short-range ordering of oligopeptide monomers, which is stable over a wide concentration range [30, 39–40].
Attaching functional groups to the dendritic peptide amphiphiles – and thus the supramolecular polymers – by exchanging one of the shielding dendritic tetra(ethylene glycol) dendrons is important with regard to potential applications. However, depending on the nature of the functional groups, the influence on the self-assembly behavior may not be neglected. In the present work, the installation of a sulfated oligoglycerol dendron introduces eight anionic charges to the periphery of the peptide amphiphile II that possibly counteracts the β-sheet-driven self-assembly due to electrostatic repulsion. CD spectroscopic experiments based on 25 µM or 50 µM solutions of II in 20 mM TRIS as well as PBS buffer support this notion (Figure 2A and Figure S2 in Supporting Information File 1). […]

Data set [3] deals with T1, L-selectin (Homo sapiens, UniProt P14151).
T1 construct: purchased R&D Systems, Minneapolis, USA
The data set is described as follows: competitive SPR L-selectin binding (inhibition) assay. To be noted: competitive SPR (BIAcore X); L-selectin/Fc chimera on protein A-coated 15 nm gold nanoparticles preincubated with analyte; chip with immobilized sulfated tyrosine/sialyl-Lewis X ligand; HEPES 0.020 M pH 7.4, 0.150 M NaCl, 0.001 M CaCl2; sigmoidal fit. As to the method: The L-selectin binding behavior of the sulfated supramolecular polymer resulting from II was assessed using a competitive surface plasmon resonance (SPR) binding assay, whereby neutral supramolecular polymers of I were used as control experiment. L-Selectin-coated gold nanoparticles were incubated with analyte solutions of different concentrations and subsequently probed on an SPR-chip modified with immobilized sulfated tyrosine and sialyl-Lewis^X as model ligands. The resulting signal is referenced to a control experiment lacking the preincubation of L-selectin particles. Figure 3 summarizes the resulting dose–response curves.
Figure 3 Concentration-dependent relative L-selectin binding of the supramolecular polymers I and II in HEPES buffer (0.020 M, pH 7.4, with 0.150 M NaCl and 0.001 M CaCl2) measured by SPR. L-Selectin-coated nanoparticles were preincubated with solutions of the supramolecular polymers. […]
(Quantifoil R1/4) at room temperature. […]
autoloader protocol. The micrographs were recorded under low -dose conditions with a primary
magnification of 28000x and an acceleration voltage of 200 kV. The images were recorded by […]
Minneapolis, USA), and the binding signal to the artificial ligand was recorded. […]
taken, which yielded the respective dose–response curves. The IC50 values were determined […]

In data set [4] the target is T1, L-selectin. The conditions noted are these: literature comparison values; read-out: IC50, L-selectin binding; cited from earlier work. An excerpt: However, the densely sulfated dendritic polyglycerol of similar molecular weight is able to bind in the ...

Like-named read-outs stand apart in the source and are kept apart here. Some results are limits rather than exact numbers.

T1 sequence (P14151 with tags, fused parts or gaps limits assumed, species assumed): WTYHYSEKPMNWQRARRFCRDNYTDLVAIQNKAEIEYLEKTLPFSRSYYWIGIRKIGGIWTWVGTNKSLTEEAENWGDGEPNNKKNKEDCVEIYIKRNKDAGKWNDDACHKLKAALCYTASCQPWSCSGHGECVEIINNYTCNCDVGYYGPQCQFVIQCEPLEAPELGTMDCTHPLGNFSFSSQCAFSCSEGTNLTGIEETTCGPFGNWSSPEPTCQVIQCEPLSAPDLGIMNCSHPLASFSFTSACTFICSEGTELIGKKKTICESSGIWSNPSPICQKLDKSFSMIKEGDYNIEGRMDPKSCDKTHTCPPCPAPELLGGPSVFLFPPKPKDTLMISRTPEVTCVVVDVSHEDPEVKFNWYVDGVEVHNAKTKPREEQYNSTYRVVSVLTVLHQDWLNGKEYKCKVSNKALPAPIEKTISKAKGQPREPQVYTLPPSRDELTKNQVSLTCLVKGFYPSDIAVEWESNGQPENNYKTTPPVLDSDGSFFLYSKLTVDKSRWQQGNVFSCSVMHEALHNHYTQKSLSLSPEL

As to `COCCOCCOCCOCCOCC(COCCOCCOCCOCCOC)(COCCOCCOCCOCCOC)NC(=O)CCCCCNC(=O)[C@H](Cc1ccccc1)NC(=O)[C@H](Cc1ccccc1)NC(=O)[C@H](Cc1ccccc1)NC(=O)c1cc(C(=O)N[C@@H](Cc2ccccc2)C(=O)N[C@@H](Cc2ccccc2)C(=O)N[C@@H](Cc2ccccc2)C(=O)NCCCCCC(=O)NCCOCCNC(=O)Cn2cc(COC(COC(COC(COS(=O)(=O)O)COS(=O)(=O)O)COC(COS(=O)(=O)O)COS(=O)(=O)O)COC(COC(COS(=O)(=O)O)COS(=O)(=O)O)COC(COS(=O)(=O)O)COS(=O)(=O)O)nn2)cc(C(=O)N[C@@H](Cc2ccccc2)C(=O)N[C@@H](Cc2ccccc2)C(=O)N[C@@H](Cc2ccccc2)C(=O)NCCCCCC(=O)NC(COCCOCCOCCOCCOC)(COCCOCCOCCOCCOC)COCCOCCOCCOCCOC)c1` [II], the “length of long rigid rods” value in data set [1] is “several hundred nanometers”. The “added NaCl at which the characteristic β-sheet CD signature is restored” value in data set [2] is over 100 mM. Take `COCCOCCOCCOCCOCC(COCCOCCOCCOCCOC)(COCCOCCOCCOCCOC)NC(=O)CCCCCNC(=O)[C@H](Cc1ccccc1)NC(=O)[C@H](Cc1ccccc1)NC(=O)[C@H](Cc1ccccc1)NC(=O)c1cc(C(=O)N[C@@H](Cc2ccccc2)C(=O)N[C@@H](Cc2ccccc2)C(=O)N[C@@H](Cc2ccccc2)C(=O)NCCCCCC(=O)NC(COCCOCCOCCOCCOC)(COCCOCCOCCOCCOC)COCCOCCOCCOCCOC)cc(C(=O)N[C@@H](Cc2ccccc2)C(=O)N[C@@H](Cc2ccccc2)C(=O)N[C@@H](Cc2ccccc2)C(=O)NCCCCCC(=O)NC(COCCOCCOCCOCCOC)(COCCOCCOCCOCCOC)COCCOCCOCCOCCOC)c1` [I]: in data set [3], the IC50 came to 5 µM. With unfractionated heparin, in data set [4], the IC50 was 12 µM.
